From patent US20070042353A1, “HCV polymerase suitable for crystal structure analysis and method for using the enzyme” (Japan Tobacco Inc., priority 1999, published 2007)
Where no end group is shown, it is not given here.

Columns and labels:
[1] = target: T1, NS5B544 (Hepatitis C virus genotype 1b, UniProt P26663); experiment: HCV polymerase-inhibitory activity of synthetic peptide, pre-incubated with NS5B544; type: biochemical, HCV-BK strain; conditions: final concentration of 30 μM; pre-incubated with NS5B544 at 25° C. for 30 minutes
T1 construct: residue 1 (Ser) of the NS5B, a C-terminal amino acid residue of X′ is any one of amino acid residues 531 (Lys) to 544 (Gln); made in house; host or cells: E. coli
Method: The reaction mixture with the composition mentioned below (30 μl) was reacted at 25° C. for 90 min. • Reaction mixture: the HCV polymerase obtained in Example 1 (1 μg/ml), the template RNA obtained in Example 5 (10 μg/ml), ATP (50 μM), GTP (50 μM), CTP (50 μM), UTP (2 μM), [5, 6-^3H] UTP (46 Ci/mmol (Amersham), 1.5 μCi), 20 mM Tris-HCl (pH 7.5), EDTA (1 mM), MgCl2 (5 mM), NaCl (50 mM), DTT (1 mM), BSA (0.01%).
The reaction was terminated by adding 10% trichloroacetic acid at 4° C. and 1% sodium diphosphate solution (150 μl) to the reaction mixture, and kept in ice for 15 min to precipitate the RNA. The RNA was trapped on a glass filter (Whatman, GF/C) by suction filtration. The filter was washed with a solution containing 1% trichloroacetic acid and 0.1% sodium diphosphate, then with 90% ethanol, and dried. A liquid scintillation cocktail (Packard) was added to the RNA synthesized by the enzyme reaction, and the radioactivity of the RNA was measured by a liquid scintillation counter.
Next, a synthetic peptide was prepared by a conventional method and its HCV polymerase-inhibitory activity was assessed. […] The synthetic peptide and NS5B544 were pre-incubated at 25° C. for 30 minutes, and the polymerase activity was measured in the same manner as in Example 5. […]

[2] = system: HCV polymerase; experiment: Measurement of the HCV polymerase activity (3H-UTP incorporation into template RNA); type: biochemical, HCV-BK strain; conditions: radioactivity of the NS5B591 enzyme reaction as standard; polymerase 1 μg/ml, 25° C., 90 min
Text: The DNA fragment (148 bp) containing polyU and 3′ X sequence was completely synthesized using synthetic primers designed based on the sequence of the 3′ untranslational region of the HCV genome, and cloned into plasmid pBluescript SK II (+) (Stratagene). The cDNA encoding the full length NS5B prepared in the same manner as in Example 1 was digested with restriction enzyme KpnI to obtain the cDNA fragment covers the region from the restriction enzyme cleavage site to the stop codon. This cDNA fragment was ligated to the upstream of 3′ untranslational region DNA of pBluescript SK II (+). The DNA insert of about 450 bp in total was used as a template for preparing the template RNA. The plasmid was cleaved just after 3′ X sequence, circulated, treated with phenol/chloroform, and purified by ethanol precipitation to recover the DNA.
Using the purified DNA as a template, utilizing the promoter in pBluescript SK II (+), RNA was synthesized by the run-off method using MEGAscript RNA synthesis kit (Ambion), and T7 RNA polymerase (at 37° C. for 3 hours). DNaseI was added thereto and further incubated for 1 hour, and the template DNA was decomposed and removed to obtain the crude RNA product. The crude product was treated with phenol/chloroform, and purified by ethanol precipitation to obtain the desired template RNA. After confirming the quality of the RNA by agarose gel electrophoresis, the RNA was stored at −80° C. The RNA is a template suitable for the highly sensitive measurement of the polymerase activity. […]
The reaction was terminated by adding 10% trichloroacetic acid at 4° C. and 1% sodium diphosphate solution (150 μl) to the reaction mixture, and kept in ice for 15 min to precipitate the RNA. […] A liquid scintillation cocktail (Packard) was added to the RNA synthesized by the enzyme reaction, and the radioactivity of the RNA was measured by a liquid scintillation counter.
The activity of the HCV polymerase was calculated from the value of radioactivity in the enzyme reaction of each NS5B using the radioactivity in the enzyme reaction of NS5B591 as a standard.

Substance	inhibition of the polymerase activity [1] [%]	relative activity (%) [2] [%]
KDLSGWFK [positions 546 to 551 of HCV polymerase NS5B with a Lys residue attached to both ends]	40 to 50	–
NS5B531: consecutive amino acid sequence 1-531 of NS5B with histidine tag	–	2149
NS5B536: consecutive amino acid sequence 1-536 of NS5B with histidine tag	–	2107
NS5B544: consecutive amino acid sequence 1-544 of NS5B with histidine tag GSHHDHHH	–	2014
